T1: GST-POMC fragments (Homo sapiens, UniProt P01189)
T1 construct: purified GST, GST-POMC^1-76, GST-POMC^27-76, or GST-POMC^1-26 was incubated with 50 μl of glutathione Sepharose beads; made in house; Marchf63f came from an extract of transfected HEK293T cells
T1 sequence (P01189 1-76): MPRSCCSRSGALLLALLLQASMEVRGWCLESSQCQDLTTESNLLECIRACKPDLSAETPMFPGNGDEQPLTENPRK

T2: GST-POMC fragments (Homo sapiens, UniProt P01189)
T2 construct: purified GST, GST-POMC^1-76, GST-POMC^27-76, or GST-POMC^1-26 was incubated with 50 μl of glutathione Sepharose beads; made in house; Marchf63f came from an extract of transfected HEK293T cells
T2 sequence (P01189 27-76): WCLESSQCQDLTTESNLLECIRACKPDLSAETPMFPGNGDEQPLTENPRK

T3: GST-POMC fragments (Homo sapiens, UniProt P01189)
T3 construct: purified GST, GST-POMC^1-76, GST-POMC^27-76, or GST-POMC^1-26 was incubated with 50 μl of glutathione Sepharose beads; made in house; Marchf63f came from an extract of transfected HEK293T cells
T3 sequence (P01189 1-26): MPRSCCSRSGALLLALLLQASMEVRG

T4: POMC (Homo sapiens, UniProt P01189)
T4 construct: expressed in transfected cells; host or cells: HEK293T
T4 sequence (P01189 1-267): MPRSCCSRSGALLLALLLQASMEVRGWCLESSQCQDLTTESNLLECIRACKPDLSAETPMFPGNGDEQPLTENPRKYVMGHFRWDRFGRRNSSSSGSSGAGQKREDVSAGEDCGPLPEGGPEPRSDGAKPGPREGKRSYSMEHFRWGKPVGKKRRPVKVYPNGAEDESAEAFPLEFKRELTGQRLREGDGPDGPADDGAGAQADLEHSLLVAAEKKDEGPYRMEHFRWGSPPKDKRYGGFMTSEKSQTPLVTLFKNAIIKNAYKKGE


Legend:
[1] = system: POMCha-overexpressing Marchf6-KO N43/5 cells; assay: Cell viability (CellTiter-Glo) of POMCha-overexpressing Marchf6-KO N43/5 cells; assay type: cell-based, mouse; settings: ectopic expression by transfection
Method: To understand the functional or mechanistic association between Marchf6-mediated POMC degradation and ferroptosis, lipid ROS levels were compared in N43/5 cells overexpressing POMCha using a lipid peroxidation sensor C11-BODIPY^581/591. Specifically, WT or Marchf6-KO N43/5 cells were transfected with pCH4129 (POMCha) for 48 hours, and the medium was replaced with a culture medium containing 2 μM C11-BODIPY^581/591 (Thermo Fisher Scientific, D3861). The cells were incubated at 37° C. for 30 minutes, and the fluorescent probe-treated cells were trypsinized, transferred to a 15 ml Falcon tube, washed three times with 1 ml of ice-cold PBS, and then transferred to an ice-cold round-bottom polystyrene tube (Corning, 352235). The amount of intracellular lipid ROS in […] was measured using CytoFLEX LX (Beckman Coulter) using fluorescein isothiocyanate (FITC) and analyzed using FlowJo v10.8.1 (BD Bioscience). In addition, cell viability was analyzed using a CellTiter-Glo luminescent 3D cell viability assay kit (Promega, G9241) and a multimode plate reader (TECAN, Spark 10 M). At this time, when the inhibition of cell death was evaluated, WT or Marchf6-KO N43/5 cells expressing pCH60 (empty vector) or pCH4129 (POMCha) (final concentration of […] each) were treated with 5 μM Fer-1, 20 μM Z-VAD-FMK or 40 μM Nec-1, and incubated for 24 hours, and cell viability was analyzed. In addition, the intracellular NADP(H) level was measured using a NADP/NADPH-Glo assay kit (Promega, G9081) and a multimode plate reader (TECAN, Spark 10 M). Further, LDH activity was measured using the Cytotoxicity Detection Kit Plus (LDH) (Sigma, 4744926001).
Through Examples, since Marchf6 mediated the degradation of POMC, it was expected that loss of Marchf6 would make POMC neurons hypersensitive to POMC-induced ferroptosis. Therefore, pCH60 (empty vector), pCH879 (Marchf63f), pCH880 (Marchf6flag^C9A), or pCH4170 (Marchf6flag^P460A) was transfected into WT or Marchf6-KO N43/5 cells, and the degree of ferroptosis induction in POMC neurons was analyzed as in Example 6-1.

GST-POMC fragments [2] = molecular target: T1, GST-POMC fragments; assay: GST pull-down assay; assay type: binding; settings: extract of HEK293T cells expressing Marchf63f
Method: (§1) To clarify a POMC domain binding to the C4 domain of Marchf6, a Y2H assay was performed using a set of POMC fragments in which the C4 of Marchf6 and the C-terminus (Ct-) of POMC were cleaved. To this end, pCH4540 (C4), pCH4132 (POMC), or cleaved forms thereof pCH4235 (POMC^1-76), pCH4236 (POMC^1-87), pCH4237 (POMC^1-102), pCH4238 (POMC^1-137), and pCH4239 (POMC^1-176) were co-transformed into CHY726 and spotted on a SC(-Leu/-Trp) or SC(-Leu/-Trp/-His) plate and analyzed as in Example above. In addition, for interaction analysis between full-length Marchf6 and POMC, a split-Ub assay was performed by transforming S. cerevisiae CHY712 with pCH836 (Marchf6) or pCH4311 (Marchf6^P460A) as bait and pCH4203 (POMC^1-267), pCH4204 (POMC^77-267), or pCH4313 (POMC^1-76) as prey. In addition, for glutathione-S-transferase (GST) pull-down assay, […] of purified GST, GST-POMC^1-76, GST-POMC^27-76, or GST-POMC^1-26 was incubated with 50 μl of glutathione Sepharose beads (Cytiva, 17-0756-05) at 4° C. for 2 hours.
(§2) HEK293T cells transfected with pCH879 (Marchf63f) were lysed with a lysis buffer (50 mM Tris-HCl, 150 mM NaCl, 1 mM EDTA, 1% NP-40, pH 7.6) containing 1× protease inhibitor cocktail to obtain an extract, and the extract and the beads were further incubated at 4° C. for 2 hours, and then washed three times with 0.5 ml of GST-wash buffer (20 mM Tris-HCl, 137 mM NaCl, 2 mM EDTA, 0.5% NP-40, 10% glycerol, pH 7.6). Proteins binding to the beads were eluted with a 2× SDS-sample buffer, heated at 37° C. for 20 minutes, subjected to SDS-PAGE, Coomassie blue staining, and immunoblotting using anti-flag antibody.

GST-POMC fragments [3] = molecular target: T2, GST-POMC fragments; assay: GST pull-down assay; assay type: binding; settings: extract of HEK293T cells expressing Marchf63f; remark: listed apart in the source
Method: as §1, §2

GST-POMC fragments [4] = molecular target: T3, GST-POMC fragments; assay: GST pull-down assay; assay type: binding; settings: extract of HEK293T cells expressing Marchf63f; remark: listed apart in the source
Method: as §1, §2

[5] = system: Gpx4, CHOP, Nox2, and Nox4; assay: Immunoblotting of Gpx4, CHOP, Nox2 and Nox4 in POMCha-overexpressing Marchf6-KO N43/5 cells; assay type: cell-based, mouse
POMC = molecular target: T4, POMC; assay: Chemical crosslinking-based reciprocal co-immunoprecipitation assay in HEK293T cells; assay type: binding; settings: DSP crosslinking
Method: For the chemical crosslinking-based reciprocal co-immunoprecipitation assay, HEK293T cells were incubated at […] in a 10-cm dish plate and co-transfected with […] of pCH60 (empty vector) or pCH4129 (exogenous C-terminally hemagglutinin (ha)-tagged POMC: POMCha) and pCH879 (wild-type C-terminal triple flag-tagged Marchf6: Marchf63f) or pCH4170 (Marchf6^P460A) and incubated for 48 hours. The cells were washed with PBS, treated with 1 mM DSP [dithiobis(succinimidyl propionate)] (Thermo Fisher, 22585), and then the crosslinked cells were lysed and immunoprecipitated. The beads were washed three times with an IP-wash buffer (20 mM Tris-HCl, 137 mM NaCl, 0.1% NP-40, 2 mM EDTA, 10% glycerol) and bound proteins were eluted with a 2× SDS sample buffer. For immunoprecipitation with FLAG-agarose (Sigma-Aldrich, A2220), a 3× FLAG peptide (Protein Ark, GEN-3XFLAG-5) was used. Thereafter, the eluate was denatured and heated at 37° C. for 20 minutes, and SDS-PAGE and immunoblotting were performed using the corresponding antibody.

Molecule | reduced viability of POMCha-overexpressing Marchf6-deficient N43/5 cells, effect of ectopic expression [1] | binding to GST-POMC^1-76 (GST-POMC fragments [2]) | binding to GST-POMC^27-76 (GST-POMC fragments [3]) | binding to GST-POMC^1-26 (GST-POMC fragments [4]) | expression levels of Gpx4, CHOP, Nox2, and Nox4 proteins, effect of expression of construct [5] | binding of full-length POMC (co-immunoprecipitation) (POMC)
Marchf63f: wild-type C-terminal triple flag-tagged Marchf6 (membrane associated ring-CH-type finger 6), expressed from pCH879 (protein, UniProt Q6ZQ89 1-909, looked up, C-terminal triple FLAG tag, wild-type C-terminal triple flag-tagged Marchf6 (membrane associated ring-CH-type finger 6), expressed from pCH879) E3 ubiquitin-protein ligase …: MDTAEEDICRVCRSEGTPEKPLYHPCVCTGSIKFIHQECLVQWLKHSRKEYCELCKHRFAFTPIYSPDMPSRLPIQDIFAGLVTSIGTAIRYWFHYTLVAFAWLGVVPLTACRIYKCLFTGSVSSLLTLPLDMLSTENLLADCLQGCFVVTCTLCAFISLVWLREQIVHGGAPIWLEHAAPPFNAAGHHQNEAPVGGNGAENPAADQPANPAGENAVLGENPDAQDGQAEEEEEDNEEEDDAGVEDAADANNGAQDDMNWNALEWDRAAEELTWERMLGLDGSLVFLEHVFWVVSLNTLFILVFAFCPYHIGHFSLVGLGFEEHVQASHFEGLITTIVGYILLAITLIICHALATLVKFHRSRRLLGVCYIVVKVSLLVVVEIGVFPLICGWWLDICSLEMFDATLKDRELSFQSAPGTTMFLHWLVGMVYVFYFASFILLLREVLRPGVLWFLRNLNDPDFNPVQEMIHLPIYRHLRRFILSVIVFGSIVLLMLWLPIRIIKSLLPNFLPYNVMLYSDAPVSELSLELLLLQVVLPALLEQGHTRQWLKGLVRAWTVTAGYLLDLHSYLLGDQEENENSANQQVNNNQPARNNNAVPAGEGLHAAHQAILQQGGPVGFQPYRRPLNFPLRIFLLIVFMCITLLIASLICLTLPVFAGRWLMSFWTGTAKIHELYTAACGLYVCWLTIRAVTVLVAWMPQGRRVIFQKVKEWSLMIMKTLIVAVLLAGVVPLLLGLLFELVIVAPLRVPLDQTPLFYPWQDWALGVLHAKIIAAITLMGPQWWLKTVIEQVYANGIRNIDLHYIIRKLAAPVISVLLLSLCVPYVIASGAVPLLGVTAEMQNLVHRRIYPFLLMVVVLMGILSFQVRQFKRLYEHIKNDKYLVGQRLVNYERKSGKQGPSTPPPVSSQE | restored | directly bound | very weakly bound | hardly bound | restored | specifically bound
Marchf63f^P460A: POMC-inaccessible Marchf6 mutant with Pro460-to-Ala mutation in the POMC-interacting region (pCH4170) (protein, UniProt Q6ZQ89 1-909, looked up, variant P460A, C-terminal triple FLAG tag) E3 ubiquitin-protein ligase …: MDTAEEDICRVCRSEGTPEKPLYHPCVCTGSIKFIHQECLVQWLKHSRKEYCELCKHRFAFTPIYSPDMPSRLPIQDIFAGLVTSIGTAIRYWFHYTLVAFAWLGVVPLTACRIYKCLFTGSVSSLLTLPLDMLSTENLLADCLQGCFVVTCTLCAFISLVWLREQIVHGGAPIWLEHAAPPFNAAGHHQNEAPVGGNGAENPAADQPANPAGENAVLGENPDAQDGQAEEEEEDNEEEDDAGVEDAADANNGAQDDMNWNALEWDRAAEELTWERMLGLDGSLVFLEHVFWVVSLNTLFILVFAFCPYHIGHFSLVGLGFEEHVQASHFEGLITTIVGYILLAITLIICHALATLVKFHRSRRLLGVCYIVVKVSLLVVVEIGVFPLICGWWLDICSLEMFDATLKDRELSFQSAPGTTMFLHWLVGMVYVFYFASFILLLREVLRPGVLWFLRNLNDADFNPVQEMIHLPIYRHLRRFILSVIVFGSIVLLMLWLPIRIIKSLLPNFLPYNVMLYSDAPVSELSLELLLLQVVLPALLEQGHTRQWLKGLVRAWTVTAGYLLDLHSYLLGDQEENENSANQQVNNNQPARNNNAVPAGEGLHAAHQAILQQGGPVGFQPYRRPLNFPLRIFLLIVFMCITLLIASLICLTLPVFAGRWLMSFWTGTAKIHELYTAACGLYVCWLTIRAVTVLVAWMPQGRRVIFQKVKEWSLMIMKTLIVAVLLAGVVPLLLGLLFELVIVAPLRVPLDQTPLFYPWQDWALGVLHAKIIAAITLMGPQWWLKTVIEQVYANGIRNIDLHYIIRKLAAPVISVLLLSLCVPYVIASGAVPLLGVTAEMQNLVHRRIYPFLLMVVVLMGILSFQVRQFKRLYEHIKNDKYLVGQRLVNYERKSGKQGPSTPPPVSSQE | not restored |  |  |  | not restored | did not bind
